Positions of bridges follow the written chain, without caps; N, C: chain ends. No end group written: not given here. COCH2 = acetyl group that carries the bridge
Molecular target: T1, Recombinant Human FGFR1 alpha (IIIc) Fc Chimera Protein (Homo sapiens, UniProt P11362)
T1 construct: purchased R&D systems 658-FR-050
Assay: ELISA binding affinity of enzymatically synthesized peptide to FGFR
Settings: ELISA luminescence signal at 10 nmol/L peptide, SEQ ID NO: 239 standardized to 1; enzyme synthesis product
Procedure: The binding affinity of the peptide to FGFR was evaluated using an ELISA method.
The peptide used for the evaluation was enzymatically synthesized by the following method.
First, a fusion peptide (SEQ ID NO: 25) in which a translation enhancing sequence (SEQ ID NO: 22), a peptide, a Myc tag (SEQ ID NO: 23), and a HiBiT tag (SEQ ID NO: 24) were linked in this order was designed. Next, a template DNA sequence (SEQ ID NO: 26) was designed in which a T7 promoter sequence, a Shine-Dalgarno sequence, a sequence necessary for transcription and translation initiation, such as a start codon (ATG), was provided on the 5′ terminal side of the DNA sequence encoding the fused peptide, and a stop codon group was provided on the 3′ terminal side thereof. In a case where the triplet TAG codon is included in the template DNA sequence, the above-described codon is assigned to the codon of chloroacetylated lysine, and thus, the peptide encoded by the above-described DNA sequence is a cyclic peptide in which a thiol group of cysteine and a chloroacetyl group of chloroacetylated lysine spontaneously form a thioether bond.
The cell-free enzymatic synthesis of the polypeptide was performed in a translation solution containing a template DNA, PUREfrex 2.0 (GeneFrontier, PF201-0.25-5), and Aminoacyl tRNA (1). 1.75 μL ([…]) of the template DNA prepared to 50 ng/μL, 2.5 μL of PUREfrex 2.0 Solution I, 0.25 μL of Solution II, 0.5 μL of Solution III, and a dried product of Aminoacyl tRNA (1) (final concentration: 0.5 ng/μL) were mixed and mixture was subjected to a reaction at 37° C. for 1 hour.
The concentration of the enzymatically synthesized peptide was measured using the peptide diluted with Can Get Signal Immunoreaction Enhancer Solution I (TOYOBO, NKB-101), Nano-Glo HiBiT Lytic Detection System (Promega, N3040), and a chemical synthetic peptide for a calibration curve having a known concentration (SEQ ID NO: 33) according to the standard protocol of the Nano-Glo HiBiT Lytic Detection System.
The binding affinity of the enzymatically synthesized peptide to FGFR was measured by evaluating the amount of the peptide bound to FGFR by ELISA.
First, 5 ng of Recombinant Human FGFR1 alpha (IIIc) Fc Chimera Protein (R&D systems, 658-FR-050) was immobilized in each well of a 96-well plate, and blocked with Pierce Protein-Free (PBS) Blocking Buffer (Thermo, 37572), and a peptide diluted with Can Get Signal Immunoreaction Enhancer Solution I (TOYOBO, NKB-101) was then added and reacted at room temperature for 3 hours. After washing with 0.05% Tween 20-containing phosphate buffered saline (PBS), an anti-Myc antibody (Cell Signaling, 14038S) diluted with Can Get Signal Immunoreaction Enhancer Solution II (TOYOBO, NKB-101) was added and reacted at room temperature for 2 hours. After washing with 0.05% Tween 20-containing PBS, SuperSignal ELISA Femto Substrate (Thermo, 37075) was added, and the luminescence amount was measured. The dose-response relationship was calculated from using the difference between the luminescence amount in the well in which FGFR was immobilized and the luminescence amount in the well in which FGFR was not immobilized, and the concentration of the peptide at the time of reaction, and the binding affinity to FGFR was evaluated according to the following evaluation criteria. The evaluation result preferably satisfies the evaluation criteria A, B, or C.
In a case where a value of a luminescence signal emitted by the cyclic peptide set forth in SEQ ID NO: 239 at a reaction concentration of 10 nmol/L is standardized to 1, evaluation criteria of the luminescence signal value emitted by the peptide at a reaction concentration of 10 nmol/L is as follows. • A: 0.7 or more • B: 0.5 or more and less than 0.7 • C: 0.1 or more and less than 0.5 • D: less than 0.1.

T1 sequence (P11362 with tags, fused parts or gaps limits assumed): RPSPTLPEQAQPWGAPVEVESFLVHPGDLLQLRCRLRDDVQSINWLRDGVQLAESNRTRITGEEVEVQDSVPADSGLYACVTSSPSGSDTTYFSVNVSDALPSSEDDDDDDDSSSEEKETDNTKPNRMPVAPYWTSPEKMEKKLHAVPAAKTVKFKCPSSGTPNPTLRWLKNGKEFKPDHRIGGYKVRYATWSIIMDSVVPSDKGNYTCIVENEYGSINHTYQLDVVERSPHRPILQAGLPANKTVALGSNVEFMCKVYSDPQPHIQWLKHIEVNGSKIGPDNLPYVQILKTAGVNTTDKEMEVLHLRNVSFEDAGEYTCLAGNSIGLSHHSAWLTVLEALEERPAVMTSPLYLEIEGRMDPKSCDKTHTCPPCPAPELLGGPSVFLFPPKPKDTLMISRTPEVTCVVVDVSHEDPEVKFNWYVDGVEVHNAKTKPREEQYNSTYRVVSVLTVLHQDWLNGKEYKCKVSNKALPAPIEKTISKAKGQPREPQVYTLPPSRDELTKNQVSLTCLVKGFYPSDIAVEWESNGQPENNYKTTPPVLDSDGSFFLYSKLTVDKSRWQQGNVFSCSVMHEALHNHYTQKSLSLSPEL

Substance	Evaluation result of binding affinity to FGFR
34 (CRALLRGAPFHLAEC; disulfide 1-15 (inferred)) [compound 34]	D (less than 0.1)
35 (CDRTLLYYRLSC; disulfide 1-12 (inferred)) [compound 35]	D (less than 0.1)
36 (CRALLRGAPFHLAEK; not fully specified; Description of Artificial Sequence: Cyclic peptide) [compound 36]	D (less than 0.1)
37 (CDRTLLYYRLSK; not fully specified; Description of Artificial Sequence: Cyclic peptide) [compound 37]	D (less than 0.1)
38 (ICVYTFDAHAHSLHAALTKI; not fully specified; Description of Artificial Sequence: Cyclic peptide) [compound 38]	A (0.7 or more)
39 (ACVYTFDAHAHSLHAALTK(COCH2)I; thioether 2-19 (inferred)) [compound 39]	A (0.7 or more)
40 (GCVYTFDAHAHSLHAALTK(COCH2)I; thioether 2-19 (inferred)) [compound 40]	A (0.7 or more)
41 (PCVYTFDAHAHSLHAALTK(COCH2)I; thioether 2-19 (inferred)) [compound 41]	A (0.7 or more)
42 (LCVYTFDAHAHSLHAALTK(COCH2)I; thioether 2-19 (inferred)) [compound 42]	A (0.7 or more)
43 (VCVYTFDAHAHSLHAALTK(COCH2)I; thioether 2-19 (inferred)) [compound 43]	A (0.7 or more)
44 (FCVYTFDAHAHSLHAALTK(COCH2)I; thioether 2-19 (inferred)) [compound 44]	A (0.7 or more)
45 (YCVYTFDAHAHSLHAALTK(COCH2)I; thioether 2-19 (inferred)) [compound 45]	A (0.7 or more)
46 (WCVYTFDAHAHSLHAALTK(COCH2)I; thioether 2-19 (inferred)) [compound 46]	B (0.5 or more and less than 0.7)
47 (NCVYTFDAHAHSLHAALTK(COCH2)I; thioether 2-19 (inferred)) [compound 47]	A (0.7 or more)
48 (QCVYTFDAHAHSLHAALTK(COCH2)I; thioether 2-19 (inferred)) [compound 48]	A (0.7 or more)
49 (SCVYTFDAHAHSLHAALTK(COCH2)I; thioether 2-19 (inferred)) [compound 49]	A (0.7 or more)
50 (TCVYTFDAHAHSLHAALTK(COCH2)I; thioether 2-19 (inferred)) [compound 50]	A (0.7 or more)
51 (DCVYTFDAHAHSLHAALTK(COCH2)I; thioether 2-19 (inferred)) [compound 51]	A (0.7 or more)

Further lines, results first:

Evaluation result of binding affinity to FGFR	Substance
A (0.7 or more)	52 (ECVYTFDAHAHSLHAALTK(COCH2)I; thioether 2-19 (inferred)) [compound 52]
A (0.7 or more)	53 (RCVYTFDAHAHSLHAALTK(COCH2)I; thioether 2-19 (inferred)) [compound 53]
A (0.7 or more)	54 (HCVYTFDAHAHSLHAALTK(COCH2)I; thioether 2-19 (inferred)) [compound 54]
C (0.1 or more and less than 0.5)	55 (ICAYTFDAHAHSLHAALTK(COCH2)I; thioether 2-19 (inferred)) [compound 55]
B (0.5 or more and less than 0.7)	56 (ICLYTFDAHAHSLHAALTK(COCH2)I; thioether 2-19 (inferred)) [compound 56]
A (0.7 or more)	57 (ICIYTFDAHAHSLHAALTK(COCH2)I; thioether 2-19 (inferred)) [compound 57]
C (0.1 or more and less than 0.5)	58 (ICFYTFDAHAHSLHAALTK(COCH2)I; thioether 2-19 (inferred)) [compound 58]
C (0.1 or more and less than 0.5)	59 (ICYYTFDAHAHSLHAALTK(COCH2)I; thioether 2-19 (inferred)) [compound 59]
C (0.1 or more and less than 0.5)	60 (ICTYTFDAHAHSLHAALTK(COCH2)I; thioether 2-19 (inferred)) [compound 60]
C (0.1 or more and less than 0.5)	61 (ICVFTFDAHAHSLHAALTK(COCH2)I; thioether 2-19 (inferred)) [compound 61]
C (0.1 or more and less than 0.5)	62 (ICVWTFDAHAHSLHAALTK(COCH2)I; thioether 2-19 (inferred)) [compound 62]
A (0.7 or more)	63 (ICVHTFDAHAHSLHAALTK(COCH2)I; thioether 2-19 (inferred)) [compound 63]
B (0.5 or more and less than 0.7)	64 (ICVYAFDAHAHSLHAALTK(COCH2)I; thioether 2-19 (inferred)) [compound 64]
C (0.1 or more and less than 0.5)	65 (ICVYGFDAHAHSLHAALTK(COCH2)I; thioether 2-19 (inferred)) [compound 65]
C (0.1 or more and less than 0.5)	66 (ICVYLFDAHAHSLHAALTK(COCH2)I; thioether 2-19 (inferred)) [compound 66]
C (0.1 or more and less than 0.5)	67 (ICVYIFDAHAHSLHAALTK(COCH2)I; thioether 2-19 (inferred)) [compound 67]
C (0.1 or more and less than 0.5)	68 (ICVYVFDAHAHSLHAALTK(COCH2)I; thioether 2-19 (inferred)) [compound 68]
B (0.5 or more and less than 0.7)	69 (ICVYQFDAHAHSLHAALTK(COCH2)I; thioether 2-19 (inferred)) [compound 69]
A (0.7 or more)	70 (ICVYSFDAHAHSLHAALTK(COCH2)I; thioether 2-19 (inferred)) [compound 70]
C (0.1 or more and less than 0.5)	71 (ICVYEFDAHAHSLHAALTK(COCH2)I; thioether 2-19 (inferred)) [compound 71]
C (0.1 or more and less than 0.5)	72 (ICVYRFDAHAHSLHAALTK(COCH2)I; thioether 2-19 (inferred)) [compound 72]
C (0.1 or more and less than 0.5)	73 (ICVYHFDAHAHSLHAALTK(COCH2)I; thioether 2-19 (inferred)) [compound 73]
C (0.1 or more and less than 0.5)	74 (ICVYTADAHAHSLHAALTK(COCH2)I; thioether 2-19 (inferred)) [compound 74]
C (0.1 or more and less than 0.5)	75 (ICVYTGDAHAHSLHAALTK(COCH2)I; thioether 2-19 (inferred)) [compound 75]
B (0.5 or more and less than 0.7)	76 (ICVYTYDAHAHSLHAALTK(COCH2)I; thioether 2-19 (inferred)) [compound 76]

Source: patent publication US20260008817A1, “CYCLIC PEPTIDE OR SALT THEREOF, AND USES THEREOF” (FUJIFILM Corporation, priority 2023, published 2026)
